Read-outs that look alike come from different tables or passages of the source.
T1: GST:CD+HD (UniProt Q01826 255-763)
T1 sequence: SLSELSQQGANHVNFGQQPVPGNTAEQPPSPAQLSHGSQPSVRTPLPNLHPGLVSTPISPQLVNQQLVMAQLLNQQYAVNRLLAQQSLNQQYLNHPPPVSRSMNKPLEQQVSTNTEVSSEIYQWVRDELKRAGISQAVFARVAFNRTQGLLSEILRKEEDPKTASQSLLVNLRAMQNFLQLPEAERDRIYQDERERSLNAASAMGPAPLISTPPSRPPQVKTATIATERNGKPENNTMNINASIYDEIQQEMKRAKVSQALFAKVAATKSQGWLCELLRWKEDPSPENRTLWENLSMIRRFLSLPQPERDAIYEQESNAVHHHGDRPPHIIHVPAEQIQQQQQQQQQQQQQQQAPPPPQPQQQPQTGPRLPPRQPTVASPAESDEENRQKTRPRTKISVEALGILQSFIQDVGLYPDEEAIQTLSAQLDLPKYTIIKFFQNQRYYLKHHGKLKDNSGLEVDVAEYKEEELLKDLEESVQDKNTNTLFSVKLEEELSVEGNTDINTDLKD

T2: GST:HD (UniProt Q01826 640-763)
T2 sequence: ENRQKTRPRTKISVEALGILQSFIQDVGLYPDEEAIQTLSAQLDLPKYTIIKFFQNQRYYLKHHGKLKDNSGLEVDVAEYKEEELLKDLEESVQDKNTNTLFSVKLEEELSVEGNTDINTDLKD

B1: probe 3 (dsDNA)
DNA 1: TATTAGCAATAATATTAGCAATAA
DNA 2: TTATTGCTAATATTATTGCTAATA
B2: probe 5 (dsDNA)
DNA 1: TATTAATAATAATATTAATAATAA
DNA 2: TTATTATTAATATTATTATTAATA
B3: CSBS dimer (probe 1) (dsDNA)
DNA 1: TATTAGTAATAATATTAGTAATAA
DNA 2: TTATTACTAATATTATTACTAATA
B4: probe 13 (IgH MAR core dimer) (dsDNA)
DNA 1: AATTTCTAATATAATTTCTAATAT
DNA 2: ATATTAGAAATTATATTAGAAATT
B5: probe 10 (dsDNA)
DNA 1: TATTAGTAATACTATTAGTAATAC
DNA 2: GTATTACTAATAGTATTACTAATA
B6: probe 9 (dsDNA)
DNA 1: TATTAGTAATCATATTAGTAATCA
DNA 2: TGATTACTAATATGATTACTAATA

How the values were obtained:
Assay in all cases: EMSA
GST:CD+HD [1] = target: T1, GST:CD+HD
GST:CD+HD [2] = target: T1, GST:CD+HD; remark: listed apart in the source
GST:HD = target: T2, GST:HD

Binder	Kd (GST:CD+HD [1])	Kd (GST:CD+HD [2])	Kd (GST:HD)
B1	50 nM	–	–
B2	10 nM	–	–
B3	–	10 nM	200 nM
B4	10 nM	–	–
B5	20 nM	–	200 nM
B6	10 nM	–	–

— publication PMC2367706
